# Laboratory results as given in US20230052369A1 (Zymeworks, published 2023).
# T1: Cyno 4-1BB-Flag, on HEK293-6e cells (Cynomolgus (Macaca fascicularis))
# T1 construct: also called Cynomolgus 4-1BB; CL#11070
# T1 chain: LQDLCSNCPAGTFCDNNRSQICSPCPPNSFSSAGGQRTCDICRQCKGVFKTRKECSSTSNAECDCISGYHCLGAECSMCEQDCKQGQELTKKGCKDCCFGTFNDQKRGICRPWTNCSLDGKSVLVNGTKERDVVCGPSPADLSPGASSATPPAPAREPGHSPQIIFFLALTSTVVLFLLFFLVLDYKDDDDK
# Legend:
# [1] = target: T2, 4-1BB human (human 4-1BB ECD-TEV-IgG1 hinge-CH2-CH3-10x His) (human); experiment: ELISA, coated 4-1BB-Fc
# T2 construct: 4-1BB residues 24-186 fused to TEV site, IgG1 Fc and His tag; the entry is the whole fusion; also called soluble human 4-1BB-Fc
# [2] = target: T3, 4-1BB dog-human (human-dog chimeric 4-1BB ECD-TEV-IgG1 Fc-10x His) (human with dog residues in domain 4); experiment: ELISA, coated 4-1BB-Fc
# T3 construct: Human 4-1BB ECD with K115Q, C121R, R134Q, R154S and V156A (already in the entry); also called dog-human chimeric 4-1BB; hybrid 4-1BB
# [3] = target: T4, 4-1BB dog (dog 4-1BB ECD-TEV-IgG1 Fc-10x His) (dog); experiment: ELISA, coated 4-1BB-Fc
# T4 construct: Uniprot E2R1R9 residues 24-186 fused to TEV site, IgG1 Fc and His tag
# [4] = target: T5, human 4-1BB, full-length, expressed on cells (human, UniProt Q07011 24-255); experiment: flow cytometry, transfected 293E6 cells
# T5 construct: also called CD137; TNFRSF9
# [5] = target: T6, truncated human 4-1BB domain 3 and 4 only construct (residues 86-255), on cells (human, UniProt Q07011 86-255); experiment: flow cytometry, transfected 293E6 cells
# T6 construct: on 293E6 cells co-transfected with mouse 4-1BB; also called 4-1BB domain 3 and 4 only construct (amino acids 86-255)
# [6] = target: T7, Mouse 4-1BB-Flag, on HEK293-6e cells (Mouse (Mus musculus), UniProt P20334 24-208); experiment: CellInsight cell binding, transfected HEK293-6e
# T7 construct: also called CL#11063
# [7] = target: T8, purified human monomeric 4-1BB (human, UniProt Q07011 24-186); experiment: SPR, mean n=3;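 further: antibodies captured on anti-human Fc chip, 4-1BB injected as five-point two-fold series from 40 nM by single-cycle kinetics at 25 °C, sensorgrams fitted to 1:1 Langmuir model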
# T8 construct: the assay used the 4-1BB part released by Factor Xa with the Fc removed; also called h4-1BB; human 4-1BB
# [8] = target: T5, human 4-1BB, full-length, expressed on …; experiment: flow cytometry, Jurkat-4-1BB
# [9] = target: T1, Cyno 4-1BB-Flag, on HEK293-6e cells; experiment: CellInsight cell binding, transfected HEK293-6e
# T6 sequence (Q07011 86-255): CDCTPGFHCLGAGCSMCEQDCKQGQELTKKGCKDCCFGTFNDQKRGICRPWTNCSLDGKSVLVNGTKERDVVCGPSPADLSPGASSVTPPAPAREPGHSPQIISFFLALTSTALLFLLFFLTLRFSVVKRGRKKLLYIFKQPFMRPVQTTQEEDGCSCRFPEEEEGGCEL
# T2 sequence (chain, as listed by the source limits assumed): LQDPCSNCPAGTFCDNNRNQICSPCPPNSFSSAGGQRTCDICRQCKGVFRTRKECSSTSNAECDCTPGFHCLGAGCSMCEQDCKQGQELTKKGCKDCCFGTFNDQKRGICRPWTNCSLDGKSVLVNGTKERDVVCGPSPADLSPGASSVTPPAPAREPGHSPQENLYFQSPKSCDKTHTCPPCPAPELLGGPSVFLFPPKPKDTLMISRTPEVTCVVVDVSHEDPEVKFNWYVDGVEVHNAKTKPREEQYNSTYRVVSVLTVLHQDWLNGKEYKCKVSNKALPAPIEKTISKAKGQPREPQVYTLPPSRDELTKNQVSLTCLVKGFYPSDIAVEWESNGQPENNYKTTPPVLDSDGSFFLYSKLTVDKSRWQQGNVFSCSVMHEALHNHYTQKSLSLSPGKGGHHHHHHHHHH
# T7 sequence (P20334 other isoform, or with tags, fused parts or gaps limits assumed): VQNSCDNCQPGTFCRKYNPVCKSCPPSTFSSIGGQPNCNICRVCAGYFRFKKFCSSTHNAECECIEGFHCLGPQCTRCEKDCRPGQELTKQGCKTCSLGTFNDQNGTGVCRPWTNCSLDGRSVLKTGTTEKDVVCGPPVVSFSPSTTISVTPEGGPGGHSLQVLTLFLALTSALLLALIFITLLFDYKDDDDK
# T4 sequence (chain, as listed by the source limits assumed): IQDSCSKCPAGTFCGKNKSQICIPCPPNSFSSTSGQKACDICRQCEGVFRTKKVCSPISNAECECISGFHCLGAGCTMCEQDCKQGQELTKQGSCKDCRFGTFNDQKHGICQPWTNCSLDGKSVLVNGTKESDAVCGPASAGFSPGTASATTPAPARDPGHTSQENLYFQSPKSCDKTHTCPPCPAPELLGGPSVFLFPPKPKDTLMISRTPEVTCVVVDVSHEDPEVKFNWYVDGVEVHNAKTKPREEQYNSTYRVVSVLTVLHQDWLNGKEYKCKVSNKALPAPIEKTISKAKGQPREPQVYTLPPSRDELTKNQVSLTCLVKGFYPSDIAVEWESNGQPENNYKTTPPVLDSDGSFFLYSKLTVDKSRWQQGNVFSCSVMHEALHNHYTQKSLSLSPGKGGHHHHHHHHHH
# T3 sequence (chain, as listed by the source mutant limits assumed): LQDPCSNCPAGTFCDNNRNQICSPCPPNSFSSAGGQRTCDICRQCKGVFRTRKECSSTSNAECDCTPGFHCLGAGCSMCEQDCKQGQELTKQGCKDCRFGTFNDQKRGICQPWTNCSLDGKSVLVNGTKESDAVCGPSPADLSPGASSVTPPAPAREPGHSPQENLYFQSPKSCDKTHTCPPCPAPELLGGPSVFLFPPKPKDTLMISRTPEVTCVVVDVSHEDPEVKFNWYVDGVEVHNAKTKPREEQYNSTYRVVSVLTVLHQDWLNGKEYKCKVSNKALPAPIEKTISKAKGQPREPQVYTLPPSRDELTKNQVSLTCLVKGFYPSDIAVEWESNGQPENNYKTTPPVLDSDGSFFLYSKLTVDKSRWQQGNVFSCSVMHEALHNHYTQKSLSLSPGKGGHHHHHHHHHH
# T5 sequence (Q07011 24-255): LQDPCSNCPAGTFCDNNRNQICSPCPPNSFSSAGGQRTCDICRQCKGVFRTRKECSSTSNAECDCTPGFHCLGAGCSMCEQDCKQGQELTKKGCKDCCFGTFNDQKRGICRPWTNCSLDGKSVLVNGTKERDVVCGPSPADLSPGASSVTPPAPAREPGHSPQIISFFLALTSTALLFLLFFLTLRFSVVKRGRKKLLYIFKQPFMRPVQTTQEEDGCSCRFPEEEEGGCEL
# T8 sequence (Q07011 other isoform, or with tags, fused parts or gaps limits assumed): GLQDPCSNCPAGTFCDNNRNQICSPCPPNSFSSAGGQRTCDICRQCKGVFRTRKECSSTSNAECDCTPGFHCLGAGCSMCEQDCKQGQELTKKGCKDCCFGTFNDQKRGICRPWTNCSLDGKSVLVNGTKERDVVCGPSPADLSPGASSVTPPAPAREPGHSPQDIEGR
binding result [1],binding result [2],binding result [3],binding result [4],binding result [5],binding result [6],Kd [7] [nM],EC50 [8] [nM],binding result [9],Binder
binds,binds,no binding,binds,no binding (tested: 2.5 µg of antibody),no binding,,,,"v20037 (antibody, human IgG1, kappa, L234A L235A, V domains shown, Mouse-human chimera; also called 6B3) VH: QVQLKESGPGLVAPSQSLSITCTVSGFSLTSYAISWVRQPPGKGLEWLGVIWPGGGTNYNSALKSRLSISKDNSKSQVFLKMNSLQTDDTARYYCARGTGTWYFDVWGAGTTVTVSS VL: DIQMTQTTSSLSASLGDRVTISCSASQGISNYLNWYQQKPDGTVKLLIYYTSSLHSGVPSRFSGSGSGTDYSLTISNLEPEDIATYYCQQYSDLPWTFGGGTKLEIKR"
binds,binds,no binding,,no binding (tested: 2.5 µg of antibody),no binding,582,17.3,binds,"v20022 (antibody, human IgG1, kappa, L234A L235A, V domains shown, Mouse-human chimera; also called 1C8; 1C8 mouse-human parental chimera) VH: QVQLKESGPGLVAPSQSLSITCTVSGFSLTTYAISWVRQPPGKGLEWLGIIWPGGGTNYNSALKSRLSISKDNSRSQVFLKMNSLQTDDTARYYCARGAGTWYFDVWGAGTTVTVSS VL: DIQMTQSTSSLSASVGDRVTISCSASQGISNYLNWYQQKPDGTVKLLIYYTSSLHSGVPSRFSGSGSGTDYSLTISNLEPEDIATYYCQQYSKFPWTFGGGTKLEIKR"
binds,binds,no binding,binds,no binding (tested: 2.5 µg of antibody),no binding,,,,"v20032 (antibody, human IgG1, kappa, L234A L235A, V domains shown, Mouse-human chimera; also called 4E6) VH: QVQLKESGPGLVAPSQSLSITCTVSGFSLTSYAINWVRQPPGKGLEWLGVLWPGGGTNYNSALKSRLSISKDNSKSQVFLKMNSLQTDDTARYYCARGSGTWYFDVWGAGTTVTVSS VL: DIQMTQTTSSLSASLGDRVTFSCSASQGISNYLNWYQQKPDGTVKLLIYYTSSLHLGVPSRFSGSGSGTDYSLTISNLEPEDIATYYCQQYSKLPWTFGGGTKLEIKR"
binds,binds,no binding,binds,no binding (tested: 2.5 µg of antibody),no binding,,,binds,"v20025 (antibody, human IgG1, kappa, L234A L235A, V domains shown, Mouse-human chimera; also called 2E8) VH: QVQLKQSGPGLVQPSQSLSITCTVSGFSLTSYGVHWVRQSPGKGLEWLGVIWSGGSTDYNAAFISRLSISKDNSKSQVFFKMNSLQADDTAIYYCARNPLTATVMDYWGQGTSVTVSS VL: DIVMTQSQKFMSTSVGDRVSVTCKASQNVGTNVAWYQQKPGQSRTVLIYSASYRHSGVPDRFTGSGSGTDFTLTISNVQSEDLAEYFCQQYNSYPLTFGTGTKLELKR"
binds,,binds,binds,no binding (tested: 2.5 µg of antibody),no binding,,,binds,"v20029 (antibody, human IgG1, kappa, L234A L235A, V domains shown, Mouse-human chimera; also called 3E7) VH: QVQLQESGGGLVKPGGSRKLSCAASGFTFSEFGMHWVRQAPDKGLEWVAYISSGSSTIYYADTVKGRFTISRDNAKNTLFLQMTSLRSEDTAMYYCARDWVDYWGQGTALTVSS VL: NIVMTQSPKSMSMSVGERVTLSCKASENVGSYVSWYQQKPEKSPKLLIYGASNRYTGVPDRFTGSGSATDFTLTISSVQAEDLADYHCGQSYSYPLTFGAGTKLELKR"
